{"source": "paper PMC10592209", "about": "(Neuron, 2023)", "proteins": {"B1": {"name": "voltage-gated HCN1 channel (natural protein, mouse (endogenous in brain), UniProt O88704 1-910, looked up)", "chain": "MEGGGKPNSASNSRDDGNSVFPSKAPATGPVAADKRLGTPPGGGAAGKEHGNSVCFKVDGGGGEEPAGSFEDAEGPRRQYGFMQRQFTSMLQPGVNKFSLRMFGSQKAVEKEQERVKTAGFWIIHPYSDFRFYWDLIMLIMMVGNLVIIPVGITFFTEQTTTPWIIFNVASDTVFLLDLIMNFRTGTVNEDSSEIILDPKVIKMNYLKSWFVVDFISSIPVDYIFLIVEKGMDSEVYKTARALRIVRFTKILSLLRLLRLSRLIRYIHQWEEIFHMTYDLASAVVRIFNLIGMMLLLCHWDGCLQFLVPLLQDFPPDCWVSLNEMVNDSWGKQYSYALFKAMSHMLCIGYGAQAPVSMSDLWITMLSMIVGATCYAMFVGHATALIQSLDSSRRQYQEKYKQVEQYMSFHKLPADMRQKIHDYYEHRYQGKIFDEENILSELNDPLREEIVNFNCRKLVATMPLFANADPNFVTAMLSKLRFEVFQPGDYIIREGAVGKKMYFIQHGVAGVITKSSKEMKLTDGSYFGEICLLTKGRRTASVRADTYCRLYSLSVDNFNEVLEEYPMMRRAFETVAIDRLDRIGKKNSILLQKFQKDLNTGVFNNQENEILKQIVKHDREMVQAIPPINYPQMTALNCTSSTTTPTSRMRTQSPPVYTATSLSHSNLHSPSPSTQTPQPSAILSPCSYTTAVCSPPIQSPLATRTFHYASPTASQLSLMQQPQQQLPQSQVQQTQTQTQQQQQQQQQQQQQQQQQQQQQQQQQQQQQQQQQQQQQPQTPGSSTPKNEVHKSTQALHNTNLTKEVRPLSASQPSLPHEVSTLISRPHPTVGESLASIPQPVAAVHSTGLQAGSRSTVPQRVTLFRQMSSGAIPPNRGVPPAPPPPAAVQRESPSVLNTDPDAEKPRFASNL"}, "B2": {"name": "acid-gated ASIC1 channel (natural protein, mouse (endogenous in brain), UniProt Q6NXK8 1-526, looked up)", "chain": "MELKTEEEEVGGVQPVSIQAFASSSTLHGLAHIFSYERLSLKRALWALCFLGSLAVLLCVCTERVQYYFCYHHVTKLDEVAASQLTFPAVTLCNLNEFRFSQVSKNDLYHAGELLALLNNRYEIPDTQMADEKQLEILQDKANFRSFKPKPFNMREFYDRAGHDIRDMLLSCHFRGEACSAEDFKVVFTRYGKCYTFNSGQDGRPRLKTMKGGTGNGLEIMLDIQQDEYLPVWGETDETSFEAGIKVQIHSQDEPPFIDQLGFGVAPGFQTFVSCQEQRLIYLPSPWGTCNAVTMDSDFFDSYSITACRIDCETRYLVENCNCRMVHMPGDAPYCTPEQYKECADPALDFLVEKDQEYCVCEMPCNLTRYGKELSMVKIPSKASAKYLAKKFNKSEQYIGENILVLDIFFEVLNYETIEQKKAYEIAGLLGDIGGQMGLFIGASILTVLELFDYAYEVIKHRLCRRGKCQKEAKRNSADKGVALSLDDVKRHNPCESLRGHPAGMTYAANILPHHPARGTFEDFTC"}}, "molecular_target": "the molecule itself", "test": "native gel or EMSA", "data": [{"protein": "B1", "values": [{"measurement": "stoichiometry N", "result": 4}]}, {"protein": "B2", "values": [{"measurement": "stoichiometry N", "result": 3}]}]}
